The target of this assay is T1, CCR1 (Homo sapiens, UniProt P32246).
T1 chain: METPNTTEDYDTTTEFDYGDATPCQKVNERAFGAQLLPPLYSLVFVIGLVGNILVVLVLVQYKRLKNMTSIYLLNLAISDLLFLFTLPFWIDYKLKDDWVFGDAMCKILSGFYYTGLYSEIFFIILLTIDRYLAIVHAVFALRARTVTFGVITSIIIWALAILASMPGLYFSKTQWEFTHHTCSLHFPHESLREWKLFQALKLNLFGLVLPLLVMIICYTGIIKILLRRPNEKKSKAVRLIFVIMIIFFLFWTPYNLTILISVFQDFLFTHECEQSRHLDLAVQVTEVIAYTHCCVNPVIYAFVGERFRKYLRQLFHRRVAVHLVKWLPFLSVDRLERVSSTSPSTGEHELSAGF
Nature of the assay: competition binding with [125I]CCL3 on transfected COS-7 cells.

B1: U83A (protein)
chain: FICSSPDAELFSEKSRMSSSVLLGCLLCCMDWSAAVPGKTEPFRKLFDAIMIKKLKSCSAAYPSDLDEGSMCDMADASPTSLELGLSKLDKES
The molecule B1 came in with an IC50 of 0.4 nM.

The values above are taken from PMC2744670 (2009).
